Consider three molecules from patent publication US20160264653A1 (published 2016).

The labels stand for the following.
B1: human ephrin-A4 ligand (EFNA4) expressed on the cell surface (ligand)
chain: LRHVVYWNSSNPRLLRGDAVVELGLNDYLDIVCPHYEGPGPPEGPETFALYMVDWPGYESCQAEGPRAYKRWVCSLPFGHVQFSEKIQRFTPFSLGFEFLPGETYYYISVPTPESSGQCLRLQVSVCCKERKSESAHPVGSPGES
notes: GPI-anchored; Cells used: HEK293T.hEFNA4 (retroviral overexpression), parental HEK293T (low level), Jurkat, Z138, K562, PC3, NTX tumor cells; also called hEFNA4; HEK293T.hEFNA4 cells

In assay [1] the target is T1, Fc portion of human IgG alone (human, UniProt P01857-1 100-330 = IgG part, limits assumed).
T1 construct: domain: Fc; also called human IgG Fcgamma1 fragment
Put plainly: flow cytometry on Jurkat cells (known to express EFNA) (FIG. 12A). On the technique in general: In flow cytometry, cells or beads pass a laser one at a time.

For another assay, the target named is T2, EphB4-Fc (human, UniProt P54760 16-539, limits assumed).
T2 construct: extracellular domain; not shown: human IgG1 Fc
T2 sequence (looked up): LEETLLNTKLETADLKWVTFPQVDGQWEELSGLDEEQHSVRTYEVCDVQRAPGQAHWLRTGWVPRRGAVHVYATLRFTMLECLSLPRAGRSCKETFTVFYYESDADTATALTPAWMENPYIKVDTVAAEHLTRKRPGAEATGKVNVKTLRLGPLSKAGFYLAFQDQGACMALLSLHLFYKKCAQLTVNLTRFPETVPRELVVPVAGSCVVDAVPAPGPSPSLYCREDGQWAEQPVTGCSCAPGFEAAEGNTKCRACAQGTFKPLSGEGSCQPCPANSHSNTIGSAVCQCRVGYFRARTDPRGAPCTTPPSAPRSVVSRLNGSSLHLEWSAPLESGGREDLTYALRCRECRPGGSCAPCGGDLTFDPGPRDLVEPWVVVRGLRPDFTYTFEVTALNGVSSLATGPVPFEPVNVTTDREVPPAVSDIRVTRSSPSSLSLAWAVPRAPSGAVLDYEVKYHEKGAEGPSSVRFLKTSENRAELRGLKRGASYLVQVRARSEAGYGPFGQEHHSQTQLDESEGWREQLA
Description: flow cytometry; EphB-Fc on HEK293T.hEFNA4 cells (FIG. 20B).

In assay [2] the target is B1. Description: cell-based or functional assay.
The target in the next assay is T3, mouse ephrin-A4-His (mouse, UniProt O08542 26-175, limits assumed).
T3 construct: also called murine EFNA4-His; not shown: His tag
T3 sequence (looked up): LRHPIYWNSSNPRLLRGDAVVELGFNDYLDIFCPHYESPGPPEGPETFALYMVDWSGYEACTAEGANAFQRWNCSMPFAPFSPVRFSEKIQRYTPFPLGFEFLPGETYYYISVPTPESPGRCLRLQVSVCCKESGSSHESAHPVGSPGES
Put plainly: ELISA; titrated ephrin-A4-His coated, 0.5 ug/ml hSC4.15 (FIG. 13C).

For a further assay, the target named is T4, human ephrin-A4-His (human, UniProt P52798 26-170, limits assumed).
T4 construct: also called hEFNA4-ECD-His; EFNA4 His fusion protein; not shown: His tag
T4 sequence: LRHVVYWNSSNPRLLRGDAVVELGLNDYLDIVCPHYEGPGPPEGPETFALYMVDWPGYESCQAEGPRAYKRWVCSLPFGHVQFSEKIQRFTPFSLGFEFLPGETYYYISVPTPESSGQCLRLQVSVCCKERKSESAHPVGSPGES
Described as above.

The next assay addresses T5, EFNA4 antigen (human, UniProt P52798 26-170, limits assumed).
T5 construct: also called ephrin-A4 antigen
T5 sequence: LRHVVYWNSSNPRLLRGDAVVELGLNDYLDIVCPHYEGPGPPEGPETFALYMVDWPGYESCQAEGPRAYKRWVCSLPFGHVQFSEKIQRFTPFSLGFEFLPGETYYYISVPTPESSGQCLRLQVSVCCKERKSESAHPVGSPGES
Put plainly: SPR (Biacore); fixed antibody, antigen concentration series; 1:1 Langmuir model. On the technique in general: In SPR one partner is held on a chip, and binding of the other changes the refractive index at the surface.

Description for EFNA4 antigen: Finally, the affinity of selected modulators was measured by surface plasmon resonance (Biacore System, GE Healthcare). Based on a standard antigen concentration series and using a 1:1 Langmuir binding model, the Kd of the antibody binding to antigen and the kinetic constants kₒₙ and koff were determined.
Description for EphB4-Fc: After washing twice, samples were resuspended in staining buffer containing 2 μg/ml DAPI and analyzed on a FACS Canto II (BD Biosciences) under standard conditions using the HTS attachment.
Description for human ephrin-A4-His: (§1) More particularly titrated amounts of human and mouse ephrin-A4-His were coated on high protein binding 96-well plates in PBS at 4° C. for 16 hours. […] The ELISA was developed as described above using a donkey-anti human IgG polyclonal antibody conjugated to horseradish peroxidase (Jackson Immuno Research).
Description for mouse ephrin-A4-His: as §1

For the molecule B1, the binding result (in assay [1]; with EphB4-Fc) was “no binding” each time.

B2: hSC4.15 (antibody, V domains shown)
VH: EVQLVESGGGLVKPGGSLRLSCAASGFTFSTYGMSWVRQAPGKGLEWVATISSGGTYTYYPDSVKGRFKISRDNAKNSLYLQMNSLRAEDTAVYYCTRHDPNDGYYFLFAYWGQGTLVTVSS
VL: EIVLTQSPGTLSLSPGERATLSCKASQSVGNNVAWYQQKPGQAPRLLIYYASNRYTGIPDRFSGSGSGTDFTLTISRLEPEDFAVYYCQQHYSSPLTFGAGTKLEIK
notes: also called humanized SC4.15
For B2, in assay [2], the “EC50 (pM) of killing, saporin-Fab in vitro cytotoxicity assay, HEK293T.hEFNA4 cells” value is 13.7 pM and the “EC50 (pM) of killing, saporin-Fab in vitro cytotoxicity assay, PC3 cells” value is 5.4 pM. In the assay with mouse ephrin-A4-His, the binding result was “binds”. Besides, the binding result with human ephrin-A4-His is “binds”.

B3: hSC4.47 (antibody, human IgG1, V domains shown)
VH: QVQLVQSGAEVKKPGASVKVSCKASGYTFTYFYMNWVRQAPGQGLEWVGQINPNNGGTAYAQKFQGRVTMTRDTSTSTVYMELSSLRSEDTAVYYCARWVGTHYFDYWGQGTTLTVSS
VL: EIVLTQSPATLSLSPGERATLSCRASQSVSSSSYTYIHWYQQKPGQAPRLLINFASNLESGIPARFSGSGSGTDFTLTISSLEPEDFAVYYCQHSWEIPPTFGGGTKLEIK
notes: also called humanized SC4.47
What is called Kd is the concentration at which binding is half-saturated. A high value points to a looser complex. In the case of B3, the Kd in the assay with EFNA4 antigen is below 0.1 nM.
